Assay [1] concerns VLA-4 and VLA-5 adhesion to fibronectin. The settings on record: cited from earlier work.
Assay [2] has as its system fibronectin-dependent cell adhesion. The following applies: cited from earlier work.
In assay [3] the target is T1, VLA-4 on tumor cell lines (Homo sapiens, UniProt P13612).
T1 construct: VLA-4 expression was observed on all cell lines tested; endogenous in cells; host or cells: HL60, KG1 (AML); U266, H929 (MM); Mec1, JM1 (CLL)
Put plainly: Binding of natalizumab to AML, CLL and MM tumor cell lines by flow cytometry (all lines). The method, then: FIG. 2 is a graph depicting binding of natalizumab to VLA-4 on tumor cell lines as measured by flow cytometry.
(§1) Flow cytometry experiments were performed to assess the level of VLA-4 expression on tumor cell lines, and VLA-4 expression was observed on all cell lines tested (FIG. 1).).

For assay [4], the system named is tumor cell binding to VLA-4 ligands. Put plainly: Maximally attainable inhibition of tumor cell binding to VLA-4 ligands at saturating antibody. It counts as cell-based. The settings on record: saturating levels of natalizumab (20 μg/mL) vs isotype control. The method, then:
FIGS. 3A and 3B are graphs showing the effect of natalizumab on HL60 and KG1 AML tumor cell adhesion to VLA-4 ligands fibronectin (• FN), vascular adhesion molecule-1-Ig fusion protein (▪ VCAM-Ig), or bone marrow stromal cells (▴ BMSC), in the presence of natalizumab or an isotype control antibody in serial dilutions starting at 20 μg/ml. FIGS. 3C and 3D show inhibition of binding of HL60 and KG1 AML cells to VLA-4 ligands in the presence saturating levels of natalizumab (20 μg/mL) (solid bars) or isotype control (clear bars).
(§2) FIGS. 4A and 4B are graphs showing the effect of natalizumab on H929 and U266 mM tumor cell adhesion to VLA-4 ligands fibronectin (• FN), vascular adhesion molecule-1-Ig fusion protein (▪ VCAM-Ig), or bone marrow stromal cells (▴ BMSC). Adhesion was assayed in the presence of natalizumab or an isotype control antibody in serial dilutions starting at 20 μg/ml.
(§3) FIGS. 5A and 5B are graphs showing the effect of natalizumab on Mec1 and JM1 CLL tumor cell adhesion to VLA-4 ligands fibronectin (• FN), vascular adhesion molecule-1-Ig fusion protein (▪ VCAM-Ig), or bone marrow stromal cells (▴ BMSC). Adhesion was assayed in the presence of natalizumab or an isotype control antibody in serial dilutions starting at 20 μg/ml.
Experiments were conducted to test whether a VLA-4 antagonist can inhibit binding of tumor cells to a VLA-4 ligand. […]

For assay [5], the system named is AML cell line HL60. Put plainly: Adhesion mediated drug resistance, HL60 cocultured with BMSC, ara-C, apoptosis. It counts as cell-based. The following applies: natalizumab combined with ara-C 10 μM, 24 hours. On the procedure:
(§4) FIGS. 6A-6D are graphs showing the results of natalizumab on cell adhesion mediated drug resistance. FIG. 6A depicts the percentage of viable HL60 cells remaining after the cells were cocultured for 24 hours with (▪) or without (□) BMSC, then exposed to the chemotherapy drug AraC (cytarabine) for 24 hours. FIG. 6B depicts the percentage of apoptotic cells (Annexin V+, 7AAD) after cocultured HL60 cells were incubated with natalizumab or isotype control antibody for 4 hr., and then exposed to an effective AraC dose as determined from FIG. 6A for 24 hours. FIGS. 6C and 6D show the results of similar experiments conducted with U266 cells exposed to melphalan.
Culturing the AML cell line HL60 in the presence of BMSC conferred a protective advantage to the cells when treated with the chemotherapeutic agent ara-C, as shown in FIG. 6A. Cells were cultured for 24 hours with (▴) or without (□) BMSC, then exposed to the chemotherapy drug AraC (cytarabine) for 24 hours (FIG. 6A). Cell viability was enhanced by the presence of BMSC.

For assay [6], the system named is MM cell line U226. Put plainly: Adhesion mediated drug resistance, MM cells, melphalan. It counts as cell-based. On the procedure: as §4
In assay [7] the test system is P-STAT3. Put plainly: Western blot of coculture-induced survival signaling. The following applies: cells cocultured with BMSCs, 30 minutes (HL60) or 4 hr (U266). Type of assay: cell-based. On the procedure: FIG. 7 is a panel of Western blots assaying for P-STAT3, STAT3, P-JNK, JNK, P-MAPK, and MAPK levels in HL60, KG1 or U266 cells grown in suspension or cocultured with BMSCs and natalizumab, as indicated, for 30 minutes (HL60) or 4 hours (U266).
HL60, KG1 or U266 cells were grown in suspension or coculture with BMSCs and natalizumab, as indicated, for 30 minutes (HL60) or 4 hr (U266), and then the cells were separated from BMSCs, and processed for Western blot analysis to determine levels of P-STAT3, STAT3, P-JNK, JNK, P-MAPK, and MAPK (FIG. 7).

In assay [8] the target is T2, VLA-4 (alpha4beta1 integrin) on hematologic tumor cell lines (UniProt P13612 34-1032; P05556 21-798). Put plainly: cell-based or functional assay.
Assay [9] deals with T2, VLA-4 (alpha4beta1 integrin) on …. Put plainly: flow cytometry, binding to H929 (MM) cells. On the procedure:
as §1

For assay [10] the target is unchanged. Put plainly: flow cytometry, binding to JM1 (CLL) cells. On the procedure:
as §1

For assay [11] the target is unchanged. Put plainly: flow cytometry, binding to KG1 (AML) cells. The method, then: as §1
The target is the same in assay [12]. Put plainly: flow cytometry, binding to U266 (MM) cells. On the procedure:
as §1

The target is the same in assay [13]. Put plainly: flow cytometry, binding to HL60 (AML) cells. The method, then:
as §1

Assay [14] shares this target. Kind of assay: flow cytometry, binding to Mec1 (CLL) cells. The method, then: as §1
For assay [15] the target is unchanged. Put plainly: inhibition of JM1 cell adhesion to wells coated with VCAM-Ig. On the procedure: as §3
(§5) Experiments were conducted to test whether a VLA-4 antagonist can inhibit binding of tumor cells to a VLA-4 ligand. Cell lines were allowed to adhere to wells coated with fibronectin (• FN), vascular adhesion molecule-1-Ig fusion protein (▪ VCAM-Ig), or bone marrow stromal cells (▴ BMSC), in the presence of increasing concentrations of natalizumab or isotype control antibody.

For assay [16] the target is unchanged. Put plainly: inhibition of KG1 cell adhesion to wells coated with VCAM-Ig. The method, then: as §5
The target is the same in assay [17]. Put plainly: inhibition of H929 cell adhesion to wells coated with VCAM-Ig. On the procedure:
as §2, §5

The target is the same in assay [18]. Put plainly: inhibition of HL60 cell adhesion to wells coated with VCAM-Ig. On the procedure: as §5
For assay [19] the target is unchanged. Kind of assay: inhibition of Mec1 cell adhesion to wells coated with VCAM-Ig. The method, then:
as §3, §5

The target is the same in assay [20]. Kind of assay: inhibition of U266 cell adhesion to wells coated with VCAM-Ig. The method, then:
as §2, §5

The target is the same in assay [21]. Put plainly: inhibition of JM1 cell adhesion to wells coated with fibronectin (FN). The method, then: as §3, §5
Assay [22] shares this target. Put plainly: inhibition of KG1 cell adhesion to wells coated with fibronectin (FN). On the procedure:
as §5

Assay [23] has the same target. Kind of assay: inhibition of H929 cell adhesion to wells coated with fibronectin (FN). The method, then:
as §2, §5

Assay [24] has the same target. Put plainly: inhibition of HL60 cell adhesion to wells coated with fibronectin (FN). On the procedure: as §5
Assay [25] shares this target. Put plainly: inhibition of Mec1 cell adhesion to wells coated with fibronectin (FN). The method, then:
as §3, §5

Assay [26] has the same target. Kind of assay: inhibition of U266 cell adhesion to wells coated with fibronectin (FN). The method, then: as §2, §5

As for Arg-Cys-Asp-TPro-Cys, the “Inhibition of VLA-4 and VLA-5 adhesion to fibronectin” value in assay [1] is “can inhibit both VLA-4 and VLA-5 adhesion to fibronectin”.

Regarding Glu-Ile-Leu-Asp-Val-Pro-Ser-Thr, the “Inhibitory activity against fibronectin-dependent cell adhesion” value (shortened to “Inhibitory activity”) in assay [2] is recorded as “possessed inhibitory activity”.

Regarding “Leu-Asp-Val-Pro-Ser (LDVPS; printed: Leu-Asp-Val-Pro-Ser) [pentapeptide from the CS-1 region of fibronectin]”, the “Inhibitory activity” value in assay [2] is recorded as “possessed inhibitory activity”.

“Glu-Ile-Leu-Asp-Val (EILDV; printed: Glu-Ile-Leu-Asp-Val) [pentapeptide from the CS-1 region of fibronectin]”: the “Inhibitory activity” value in assay [2] is “possessed inhibitory activity”.

In the case of Natalizumab, in assay [3], the “Binding to AML, CLL and MM tumor cell lines” value was “saturable binding was observed”. In addition, the “Inhibition of tumor cell binding to VLA-4 ligands at saturating levels” value in [4] is recorded as “inhibit binding in all cell types assayed”. Besides, the “Percentage of cells undergoing apoptosis” value in [5] was “increase in the percentage of cells undergoing apoptosis”. The “Effect on cell adhesion mediated resistance to melphalan” value in [6] is listed as “did not have a cytoprotective effect”. Also, the “Coculture-induced survival signaling through P-STAT3” value in assay [7] is on record as “can be inhibited”.

B1: natalizumab (antibody, human IgG4, kappa, V domains shown)
VH: QVQLVQSGAEVKKPGASVKVSCKASGFNIKDTYIHWVRQAPGQRLEWMGRIDPANGYTKYDPKFQGRVTITADTSASTAYMELSSLRSEDTAVYYCAREGYYGNYGVYAMDYWGQGTLVTVSS
VL: DIQMTQSPSSLSASVGDRVTITCKTSQDINKYMAWYQQTPGKAPRLLIHYTSALQPGIPSRFSGSGSGRDYTFTISSLQPEDIATYYCLQYDNLWTFGQGTKVEIKR
modifications: Glutamine 1 cyclized to pyroGlutamic Acid; C-terminal Lysine is removed posttranslationally
notes: Humanized version of murine monoclonal antibody 21.6; also called AN100226; TYSABRI
As for B1, in [8], the “IC50 (nM) of inhibition of H929 (MM) cell adhesion to bone marrow stromal cells (BMSC)” value amounted to 1.74 nM. The “IC50 (nM) of inhibition of HL60 (AML) cell adhesion to bone marrow stromal cells (BMSC)” value in assay [8] stood at 13.7 nM. For the same molecule, in [8], the “IC50 (nM) of inhibition of U266 (MM) cell adhesion to bone marrow stromal cells (BMSC)” value stood at 0.53 nM. The EC50 in assay [9] turned out to be 0.8 nM; in assay [10], 0.28 nM; in assay [11], 0.22 nM; in [12] it was 0.3 nM; in [13], 0.19 nM; in assay [14] it was 0.11 nM. Also, the IC50 in assay [15] came out at 0.19 nM; in [16], 0.19 nM; in [17], 0.45 nM; in assay [18], 0.92 nM; in [19] it was 0.22 nM; in assay [20] it was 0.26 nM. The IC50 stood at 11.6 nM in assay [21]; 0.1 nM in assay [22]; 0.4 nM in assay [23]; 0.5 nM in assay [24]; 0.39 nM in assay [25]; 0.4 nM in [26].

Values taken from patent US20100266587A1, “Compositions and Methods to Treat Acute Myelogenous Leukemia” (BIOGEN IDEC MA INC., priority 2009, published 2010).
